Measurements from publication PMC11470942 (Nature Communications, 2024).

Target: HPIV3 fusion protein (F), parental (Human parainfluenza virus 3, strain …, UniProt P06828)
Assay: immunostaining of cells or tissue

Sequence of HPIV3 fusion protein (F), parental (P06828 19-539): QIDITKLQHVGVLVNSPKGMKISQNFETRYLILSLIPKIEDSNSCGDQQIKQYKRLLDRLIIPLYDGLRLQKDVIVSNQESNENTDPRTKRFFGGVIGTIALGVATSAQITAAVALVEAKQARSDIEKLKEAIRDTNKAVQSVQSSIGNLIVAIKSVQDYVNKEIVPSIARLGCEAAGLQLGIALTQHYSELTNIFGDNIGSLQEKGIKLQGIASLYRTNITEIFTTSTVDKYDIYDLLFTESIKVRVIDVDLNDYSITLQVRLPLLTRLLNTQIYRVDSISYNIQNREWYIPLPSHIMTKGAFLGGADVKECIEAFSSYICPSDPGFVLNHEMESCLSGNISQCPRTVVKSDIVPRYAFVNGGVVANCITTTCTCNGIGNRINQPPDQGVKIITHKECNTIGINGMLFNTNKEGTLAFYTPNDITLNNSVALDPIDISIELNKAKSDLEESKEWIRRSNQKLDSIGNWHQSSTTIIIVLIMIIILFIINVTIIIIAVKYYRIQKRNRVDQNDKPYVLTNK

B1: PIA174 antibody fragment (Fab) (Fab, V domains shown)
VH: VQLQESGPGLVKPSETLSLTCTVSGGSVSSYYWSWIRQPPGKGLEWIGNIYYSGTTKYNPSLKSRVTISVDVSKNQFSLNLISVTAADTAVYFCARQVKSGWFVQPFDYWGQGALVTVSS
VL: QMTQSPPSLSAYVGDRVTITCRASQAIANYLAWFQQKPGKAPKSLIYAASTLQSGVPSRFSGSGSGTDFTLTISSLQPEDFATYYCHQYNTYPITFGQGTRLEIK
  binding result: binds
